Values of other authors, collected in PMC10499909.

Biological target: lactoferrin (species not stated, cited Kd) (UniProt P02788)
Details: PBS pH 6.8, 37 °C, 30 min in dark; CDs-aptamer 0.05 mg/mL with graphene oxide nanosheets

Sequence of lactoferrin (species not stated, cited Kd) (P02788 20-710): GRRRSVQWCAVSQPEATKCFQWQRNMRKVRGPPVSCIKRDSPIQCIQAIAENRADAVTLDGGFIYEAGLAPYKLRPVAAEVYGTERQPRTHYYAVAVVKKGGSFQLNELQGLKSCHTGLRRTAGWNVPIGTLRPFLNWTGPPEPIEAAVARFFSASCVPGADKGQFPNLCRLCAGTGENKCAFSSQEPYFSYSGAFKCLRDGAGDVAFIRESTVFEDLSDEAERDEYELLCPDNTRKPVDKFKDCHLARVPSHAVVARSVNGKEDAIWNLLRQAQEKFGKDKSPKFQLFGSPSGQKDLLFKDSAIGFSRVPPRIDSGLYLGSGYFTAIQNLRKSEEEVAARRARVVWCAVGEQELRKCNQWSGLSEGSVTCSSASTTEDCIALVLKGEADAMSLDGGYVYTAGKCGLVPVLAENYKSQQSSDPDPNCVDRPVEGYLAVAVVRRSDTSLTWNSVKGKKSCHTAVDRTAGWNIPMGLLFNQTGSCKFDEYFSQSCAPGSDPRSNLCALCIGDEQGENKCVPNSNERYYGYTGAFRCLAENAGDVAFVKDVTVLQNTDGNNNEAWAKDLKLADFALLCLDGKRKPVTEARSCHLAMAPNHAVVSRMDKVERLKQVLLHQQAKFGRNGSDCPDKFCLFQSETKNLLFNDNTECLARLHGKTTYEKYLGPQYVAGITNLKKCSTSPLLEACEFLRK

AGGCAGGACACCGTAACCGGTGCATCTATGGCTACTAGCTCTTCCTGCCT [LF aptamer]
Kd: 4.97 nM
